Measured values reported in patent publication US9683238, “Vascular endothelial growth factor-binding aptamers” (National University Corporation Tokyo University of …).

What was measured:
[1] = biological target: T1, VEGF165 (vascular endothelial growth factor 165) (Homo sapiens, UniProt P15692-4 P15692-4:27-191); assay: SPR; no binding capacity; TBS, 20 C; conditions: tags: R&D Systems, expressed in Sf21 insect cells; chain copies: 2 (inferred, homodimer); G4 predicted
Description: (§1) The capacity of each oligonucleotide to bind to VEGF was evaluated using Biacore T200 (GE Healthcare Japan, Japan) by measuring SPR on a CM5 sensor chip. VEGF was dissolved in 10 mM acetate buffer (pH 6.0), and VEGF (about 1000 RU) was covalently bound to the CM5 sensor chip using an amine coupling kit. A non-labeled oligonucleotide (1 µM) was dissolved in Tris-buffered saline (TBS: 10 mM Tris-HCl, 100 mM NaCl, 5 mM KCl; pH 7.4), and the resulting solution was heated at 95° C. for 5 minutes, followed by allowing the solution to cool slowly. Under these conditions, each oligonucleotide is folded to form its specific secondary structure. Various concentrations of the oligonucleotide diluted with TBS was injected at a flow rate of 20 µl/minute at 20° C. onto the CM5 chip on which VEGF was immobilized. Binding between the immobilized VEGF and the oligonucleotide was monitored. By injecting NaCl (1 M), the CM5 chip was regenerated. Using Biacore evaluation software, the association rate and the dissociation rate were approximated to calculate the K_d value.

[2] = biological target: T1, VEGF165 (vascular endothelial growth …); assay: SPR; VEGF immobilized on CM5; TBS with 5 mM KCl, pH 7.4, 20 C; conditions: tags: R&D Systems, expressed in Sf21 insect cells, chain copies: 2 (inferred, homodimer)
Description: as §1

[3] = biological target: T1, VEGF165 (vascular endothelial growth …); assay: SPR; VEGF immobilized on CM5; TBS (10 mM Tris-HCl, 100 mM NaCl, 5 mM KCl, pH 7.4), 20 C; conditions: tags: R&D Systems, expressed in Sf21 insect cells; chain copies: 2 (inferred, homodimer)

T1 sequence (P15692 other isoform, or with tags, fused parts or gaps): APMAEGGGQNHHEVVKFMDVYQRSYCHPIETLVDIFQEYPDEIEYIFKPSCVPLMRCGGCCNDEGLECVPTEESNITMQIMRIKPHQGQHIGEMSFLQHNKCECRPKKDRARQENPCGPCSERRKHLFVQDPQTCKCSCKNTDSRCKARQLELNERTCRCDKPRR

| Binder | binding result [1] | other results |
| --- | --- | --- |
| TGTGGGGGGGGTGGGGGTGGACCGC (ssDNA) [3R#06] | no binding | – |
| TGTGGGGGTGCGCGGGCCGGGCAGG (ssDNA) [2R#11] | no binding | – |
| TGTGCGGGTGGCCGGGGTGGCCTGC (ssDNA) [3R#07] | no binding | – |
| TGTGGGGGTGGACGGGCCGGGTAGA (ssDNA) [VEap121] | – | Kd ([2]; G4): 4.7 nM |
| TGTGGGGTTGGACGGGCCGTGTAGA (ssDNA) [2R#10] | no binding | – |
| TGTGCGGGGGGTGGGGGTGGTTCCC (ssDNA) [3R#04] | no binding | – |
| TGTGGGGGTGGACGGGCCGAGTACG (ssDNA) [3R03 (3R#03)] | – | Kd ([2]; G4 predicted): 1.7 nM |
| TGTGGGGGAGGACGGGCGGGGATGC (ssDNA) [3R#01] | – | Kd ([2]; G4 predicted): 8.8 nM |
| TGTGGGGATGGATGGGCCGGGCTGC (ssDNA) [3R08 (3R#08)] | – | Kd ([2]; G4 predicted): 1.5 nM |
| 3R02 bivalent (ssDNA) DNA: TGTGGGGGTGGACTGGGTGGGTACCTTTTTTTTTTTGTGGGGGTGGACTGGGTGGGTACC | – | Kd [3]: 0.03 nM |
| TGTGGGGGTGGACTGGGTGGGTACC (ssDNA) [3R02 (3R#02)] | – | Kd [2]: 0.3 nM |
| TGTGGGGCTGGGAGGTCGGGCCTGC (ssDNA) [3R#10] | no binding | – |
| TGTGGGGTTGGACGGACCGGGTAGG (ssDNA) [2R#08] | no binding | – |
| TGTGGGGGTGGTTGGGCGGGGCTGC (ssDNA) [3R09 (3R#09)] | – | Kd ([2]; G4 predicted): 2.4 nM |
